The nature of this data set: soluble on expression in E. coli; label from the status in PepcDB or PDB records.
For the sequence “MGSDKIHHHHHHMAFNLDALASVVVDDSIKGIPFGARLGIADIANQGWNVLAGDLPLPAAIIRADALAHNSRWMQRFVSERGALIAPHVKTTMCPQIIARQIADGAWGVTVATVQQMRVCRNFGADRIILANQAVGRSELDAITAMVKEPDLDFMMIVDSAVGIEAAAEAVRRNRLDRPLQLLLERGYPGGRTGCRTNDIALALARQIRATPELRLVGIEAFEGLIQTENGSPEQAVGLFMDEIAALFGLCADDGLFESDAPLVTAGGSSHYDIVIDRLAHCTARVVTRSGCYVTHDSGLYRIAHQRLQAKIGEQDGLRRALEIWTYVQSIPEPGLALLTAGRRDCGTDSGFPVPLLLSSAGAYPRDLPPGCEVINLNDQHAYMRFPPDLPLAVGDRVGLGISHPCTTFDKWQIIYLVDSDYRVIEAMKTFF”, the “soluble on expression in E. coli” value is reported as “not soluble”. Consider “MKTVALIQARLGSSRLPCKMMLSLHGLPVIDWVVRRVRRATLVDEVVVATSTQPENDILEHHLSRQGVAVFRGPEDDVLERFRLAGAAYGAEQVVRVCADNPLIWGGAIDDLIRFWRAEGCDYAYNHIPRGNLYPDGLGAETLSFALLEEVAREATLPEHREHCLSFIWAHPERYTIRTFDPADPALHRPDLKLDMDTPADYRYLALMDIHPDITPEELVAMLPRTALEHHHHHH”, for which the “soluble on expression in E. coli” value is on record as “soluble”. Take “SLFQNFINKFVGEKQMDLIKDCNTFLAFVTDKEQTKKKLYKNNMCKNRFCPMCAWRRARKDALGLSLMMQYIKQEEKKEFIFLTLTTPNVKAEELEDEIKKYNLSFGKLVKRKNVKAMMKGYVRKLEITYNKQRDDFNPHFHVLIAVNKSYFKDSKVYISQKEWLEMWRDVTGMPEITQVHVQKIKQNNNKELYEMAKYSGKDSDYLINQKIFDAYYKSLKGKQILVYSGLFKEARKKLKNGELDYLKEIDPTEYLYQIYYIWNQKEYLASELHELTEEEKRKINHQTINEIEEEK”: the “soluble on expression in E. coli” value was “soluble”. On to “MTSAYFGVAGGSNTGAQSAYFGVGGGPAGGGGGASKVGGGAAPPPGTSVYMGAGGGGGGGGAQSAYFAVGGAPVGGAPAAVSIGAPPPAGGGGASTMTALGGAPSGASTMTAVGGAPRGASTMTAVGGVPSGASTMTAVGGAPTGASTMTAVGGAPTGASPMTAFGGAPTGASTMTAVGGAPTGASTMTAVGGAPTGASTMTAVGGAPTGASTMTAVGGAPTGASTMTAVGGVPTGASTMTAIGGAPSGASTMTAVGGAPRGASTMTAVGGAPTGASTMTAVGAAPGGASTMTAVGGAPRGASTMTAVGAPGGGASALGAAPPAGSMSGGGGGATSGYFGVGQGVMGGGGAVGQSAYFGVGGGAAGGAKTGGGGGGGIPGQSMYMGAGGGGGAGGGATSAYFAPK”, for which the “soluble on expression in E. coli” value is “not soluble”.

Regarding “GAMAGMNIKDRTSEFQQSVLSYKKRNKNFREQQRERLQEKESENFANNTT”, the “soluble on expression in E. coli” value is “soluble”. Next, “MGSDKIHHHHHHAAEGNDKKQDLIVKTTQAVPVSHQGDKEFSFIARPFRTSELSFRVGGPIDRFDVYAGNRYQQGSIIAEIDPRDFRIRKERAEAIYHQAKAEFERIQKLYGKGNVSASTYEKAKADYITAKTTFNTASYELEDTHLIAPFNGYVGEVYIEKFQDVKATQPIISFIDIDQLKLEIYVTQDIARAVQALDTIQVRFDAQPDKVYNAKIMEISKGTTRNNLSYLLTALLPNKEGKLLAGMSGKASLNAPSVSTLSQGAAIPQTALCHRPTEGDYLWVVNSKTQQVTKRKVKKGDLLPNGYVSITEGLYPDETVANSGLRFLSDGMKISVENE”: “not soluble”; “MGIYQWRDKKKPSGGKRRYYYKVKRKYAAGRPPTYTTLSAAEEEERKPVRARGGSYKIKAKKVAFAVVSNPKTGEARKARILRIVETPAHREYARRGIIVKGAVIDTTLGRAVVTSRPGQEGVVNAVLLEEQGQKQLEHHHHHH”: “soluble”. For the sequence “GPGSMSTTAHATSMGPLPYPNALQSRHTTTEQRQIAAAAVRAYQGTLEQEKVLLQENDALLSEEEAGRLQRRVDNQAAADATAAQFRDRACKVVASVPGEQHQSEGGVIDIFHAACDGDVAALDACLRSASDINALGQPDPARYNGFQFKQRWLFRAPPLVFAAAFGREEAVRLLLEHGADPHVASTTGLRAQDYAAQRGYSAIVLMLTSGAPQ”, the “soluble on expression in E. coli” value is “soluble”. The result for “MVGPATGRIVVTSRIVVLGGGFGGMYAARALKRRLGRAAEIELVNAENYFVFQPLLPEVGAGSITPAHAVSPLRFLLRDVFVRKATVDSVDFDRRLVTVFQGVQRRPTEIGYDHLVIALGQAADLSKMPGLEEHALTMRTLEDARRLRAHVIGQLEHAQITRLPEVKRGALTFCVVGGGFSGIETAGEMKDLIDRSLKFYPDIDPSEVRMIVVEFADRILGEMSQGLADYATRTLRERGIEVKLGTGVASATGTQLVTTTGEVIDTRTIVATIGNAPSPVVRRMGLPSERGRISVDRTLAVKGRSDVWALGDCALIALKDAPQGPRDYAPPTAQFAVREAEQLAENIASTLTGGTPQPFDYRSKGALASLGARKGVAQVFGLELKGFPAWLLWRFYYLAFLPGLTTRIFVLLNWFMDGISPRSVVQLHTRSVPPTRYVRYRAGDVIYEAGNRSDGFYTVVTGAVEMTRTDPETGLPQVRTIGPGGHFGERLILGATRRQTSVRAAEDTKVLVMDREEFLKLADSFQAFRDYFGPYMARHGMTWPPLGETDGQAAPKPVPTEKDLEHHHHHH” reads “not soluble”. For the sequence “AKTPVREILLFDSDEFLQHNAFRAPGAPTLEALRDAEKKVEYFKSIYSNMHKRISTSSTYIDEENLELLNGVTFAFICIDAGTSKKSIVQKLEELDIPFVDVGM”, the “soluble on expression in E. coli” value was “not soluble”.

Regarding “MSLKTSRLPIAIQQAVMRRLREKLAQANLKLGRNYPEPKLSYTQRGTSAGTAWLESYEIRLNPVLLLENSEAFIEEVVPHELAHLLVWKHFGRVAPHGKEWKWMMESVLGVPARRTHQFELQSVRRNTFPYRCKCQEHQLTVRRHNRVVRGEAVYRCVHCGEQLVAKEGHHHHHH”, the “soluble on expression in E. coli” value is “not soluble”. The result for “MTMQFKIPTVLRSQEIIDKSFSRASKIEEPYFPDKVERIKKEVQDRISAIESISCSHLDKLVKRFPSIERMHPFYRSLIDLMFDVDQYKIALSKVDATSANIKRISTEYIRKLRPVKDVGNANQIMRAYYGRFASLIEDLNETLLFLGRCRDYIRKLPEVRTDLKTYIIAGMPNVGKSSLLASLTTAKPKIASYPFTTKNVIIGYNESGSERIQFIDTPGILDRDFSEMNEIEKNAILAIRFIEGKIIFLFDYSTESLYTREQQEHLYEQIKNNINPNIIRVQTKLDISTEKVENIAISVNIESGLEPLRKIIFDGGVIDVRGRNLEHHHHHH” reads “soluble”. Turning to “MYNNSELRKIQQKKLEILIDIAKFCNENKIRYWLDSGTLLGAVRHGGFIPWDDDIDIIIMQEDAKFLKENYKSENFEIVNTDEEGINFYKVISKKEQVQVGDSIAELDIDIFLVTYYPDSLALKFWNSFFHLKKNRIDRFSFSLFFTNILINLKRKLEKTKLFNYKNIEKKISYILDEAKKKNKAMPNIAYTPDCGFYLIIWREEEIFPLKKMKFEGIEFSIPNNYDTYLKKMYYSYMDLPPKEKRVPEHYQDKELKLIIKLEHHHHHH”, the “soluble on expression in E. coli” value was “not soluble”.

For “MSYPWSNKNGEAASSSKTTVAPPLSPPRYEKVLDFSTLDTQRHRYEVRDQANQRAVVSSAKAESSMIDKFCKENTRIQTNPGIDLPDDYGTDAIVANAIGDQRIVNNLKCVHVTTFNAVQQMSIQVIREGRGLVVEAPTGIGKTYAFLIPAIEAALKNRQSNCFEYTKPSPSILIMASTSALVDQLFNRCELILGLQCMDNVEPIRDIKIDKLVANHPFTKGQCDIAFCTIGKLKATIECGDVCLDNLKTIILDEADKMIDNCAFGPDINWILDQLKEENLENLQSCFFSATYNKNANGTIALTVLQMRMLGEDDPWSVIICPRMSGYITQRVVRVGRGRPNDIRSHPWVIKMGIIRKLIDDDLKETGCSKDGPYNETIAIFCETVQRVTQVTMALRQLGYNFKPVCSMITKNQQLVTVNDLEFRKIHGVVCTNILARGIDVSSVKHTIIMEMSADFDTYKHRIGRVGRDGCGGKSTVLVEHHQLQGGPASNVIEQLYNFMKESKEDIPQWMQEWIVARRNNNIDSWA”, the “soluble on expression in E. coli” value is recorded as “not soluble”. For the sequence “MGSDKIHHHHHHMKEIVHLQSFLAVARTGSLTLAAEELHVTPSAVSHRLRQLEQRLGAKLLRRTPHGMALTGEGQRFKDRISDPIEAIEMALRPETGQEGPLTVSVMPWFASSWLMPRLKRFQLRCPDARIRIETSSQLSDLAHGHVTAALRFGRGDWPDIEVEPLFDEWVIPVASPDVVAQMGSNAQDPARWPRLPDPDDLWSSWFGDEVMGEAMRSSIELHDTSSLTEAAVNGMGVVLGRYTHVAPWLERGDLVTLASQWIRMPKRHYLVRSRHRPMHSCFPHFRRWLHDEVKKYQTSASSEFY”, the “soluble on expression in E. coli” value is recorded as “not soluble”. On to “MGSDKIHHHHHHMDFFQSKFLYGKKQSQFGIFRMPRNTTNCPVVVTIHGGFWKAEYGLEEIVPLDEDLVRRGYATWNVEYRRIGENGGGWPGTFSDVIDAVNYLAFLKEDFPLDLSRVVILGHSAGGHLALWLASRWNTKQADQMENVLHTSIKAIISLAGVSNLEEMWRIESKGKTSNNVSSFLGGTPEEASDRYHLASPYELLPLHVRQILVHGGSDQEVPLDLTLGYYKKAIRLADDVGLISDSRSDHFDLIDPFSSIWLSSADSLKNIINS”, for which the “soluble on expression in E. coli” value is recorded as “not soluble”. As to “MPMYKLTPTFPPNFEVHPKIACYPVGSYHNPSFGGVGPSDAVQVESDPRKALEHKQLSLIEQLKAQTEELKKLLVSLGEAGKAERSAQKPAEKAPKEPEKSAGAASSAPGVPGAPAKLDKDAKKEARKAAKAEAVKKLASGEAPPQKSAKKTVNSTPWTVQDDRKTWETNLTLTVNLPTSLVAYEPQEQLKNATLTVRDVDLPWARALAKVGASRGVSFEGEVKNQTKEKKSSLKVVKGPAPSLQLEKTTVKSLQTIWKLLGSSLGLFSRRPQQVLSASHQAIWLGKAEQILAGSCDQSFVTREASQFLARFDSLSSQWEVCVADIVFRSLLNLGEHLPNNVELWAKKIDALIV”, the “soluble on expression in E. coli” value is on record as “soluble”. On to “MGSDKIHHHHHHMLNWLRTLLGRVRADPDTIPETLWQHTLAQYPFLAQRAAAEQSQLRTLAGQFLAGKEFSGAQGLVVTDEMAVAIAAQACLPVLHLGLDYYDDFKGIVVHPGAMLARREVMDDSGVVHRYSEVLLGEAMERGPVTLSWQDVAAAGESASQGYNVVVHEFIHKIDMRDGTANGCPPLPSRTAREAWQAVMQPAYDDFREQVAMAERFGGAPPWLDSYAATSPAEFFAVTCEAYFVNRPRFAQDFAALAGLFDEYFRRNRLSTQ”, for which the “soluble on expression in E. coli” value was “not soluble”. The result for “MSLANMHQEPDGSWMVEGQTTVRELNRVLKWGLPANGPRTLNGLILEHLESIPEAGTSLLIQGWPVTILQTQDNRVKMARVQPHHKRRRQPRRHEGHHHHHH” reads “soluble”; that for “AIALWKLVENVKYEDIYEDRHDGVPSHSSRLSQLGSVSQGPYSSAPPLSHTPSSDFQPPYFPPPYQPLPYHQSQDPYSHVSDPYSLNALHQPQQHPWGSRQRQDLQGTESGGLLPQPRASLPQLSGLDPRRDYSTVRRPDVLLHSTHHGLEAGMGDGLSLHGLAHGMDDVQAVEDLNGAMNILDRTPLGNSRPSPILEPGIQSCLSHFSFITHGFGSPAICAALTALQNYLTEALKGLDKMFLNNPTPNRHTPADGSKGGEKEEKHRK”, “soluble”. As to “MGSDKIHHHHHHVLIGLSALSFSYRCGLIGRGTPRAVSHPLDIEGVMALASRAGLQSVEFPLSLLPDLSPGRLSALRERLTLCGLTPVADSDIVDVDTLRAHIPAAAMIGAHVLRVLISPVLEGYRRPFTTDWPAHLADVTDRLRAVIDLAAEHNIILAVENHQDATSADLAAICAAVDSPHIGVCFDAVNCLVVGETPYAALERLGPLIRNVHLADYETYPTTQGWRLVRCALGEGDLDIRRLFHLIEHYAPDVACQIELVSHSARHVRILDDDWWQGYPPCDVREVLPVLRLFAQTMRLRDDDWRTPWERGAGEEQISLYEDQQYATSIAYLRTIGILPRL”, the “soluble on expression in E. coli” value is “not soluble”.

Values taken from the DeepSol protein solubility set.
